Columns and labels:
Assay in all cases: IEDB peptide-MHC binding, purified MHC/competitive/radioactivity; ≥ and ≤ were set here for values at or beyond the usual limits of such assays
Conditions in all cases: source organism: Hepatitis B virus
HLA-A*01:01 = molecular target: HLA-A*01:01
HLA-A*30:02 = molecular target: HLA-A*30:02
HLA-A*29:02 = molecular target: HLA-A*29:02
HLA-B*53:01 = molecular target: HLA-B*53:01
HLA-B*51:01 = molecular target: HLA-B*51:01
HLA-B*54:01 = molecular target: HLA-B*54:01
HLA-A*68:01 = molecular target: HLA-A*68:01
HLA-A*24:02 = molecular target: HLA-A*24:02
HLA-A*23:01 = molecular target: HLA-A*23:01
HLA-A*33:01 = molecular target: HLA-A*33:01
HLA-A*31:01 = molecular target: HLA-A*31:01
HLA-B*35:01 = molecular target: HLA-B*35:01
HLA-A*02:02 = molecular target: HLA-A*02:02
HLA-A*68:02 = molecular target: HLA-A*68:02
HLA-A*02:06 = molecular target: HLA-A*02:06
HLA-A*02:03 = molecular target: HLA-A*02:03

Which IC50 (HLA-A*01:01) does the source give for ASFCGSPY here?
Its IC50 is 51.4 nM.

And the IC50 (HLA-A*30:02)?
The IC50 was 4.3 nM.

What about the IC50 (HLA-A*29:02) of the same sequence?
Its IC50 is 86.9 nM.

How did the IC50 (HLA-B*53:01) turn out when FPHCLAFSYM was run?
Its IC50 is 128 nM.

And the IC50 (HLA-B*51:01)?
Its IC50 is 68.9 nM.

What about the IC50 (HLA-B*54:01) of the same sequence?
Its IC50 is 214 nM.

How did the IC50 (HLA-A*68:01) turn out when HTLWKAGILYK was run?
The IC50 was 48.2 nM.

LSLDVSAAFY was tested. Which IC50 (HLA-A*01:01) did it give?
Its IC50 is 333 nM.

What about the IC50 (HLA-A*29:02) of the same sequence?
Its IC50 is 44.2 nM.

Which results are given for LWFHISCLTF?
IC50 (HLA-A*24:02): 6.5 nM; IC50 (HLA-A*23:01): 7.7 nM

How did the IC50 (HLA-A*68:01) turn out when QAFTFSPTYK was run?
The IC50 was 7.1 nM.

Which results are given for RFSWLSLLVPF?
IC50 (HLA-A*24:02): 101 nM; IC50 (HLA-A*23:01): 12.6 nM

RWMCLRRFII was tested. Which IC50 (HLA-A*23:01) did it give?
The IC50 was 7.5 nM.

With SAICSVVRR as the sequence, how does the IC50 (HLA-A*68:01) read?
Its IC50 is 22.9 nM.

STLPETTVVRR was tested. Which IC50 (HLA-A*33:01) did it give?
Its IC50 is 187 nM.

And the IC50 (HLA-A*31:01)?
The IC50 was 190 nM.

Which IC50 (HLA-B*35:01) does the source give for TPARVTGGVF here?
Its IC50 is 71.6 nM.

For WMMWYWGPSLY, which IC50 (HLA-A*30:02) is on record?
The IC50 was 46.4 nM.

What about the IC50 (HLA-A*29:02) of the same sequence?
The IC50 was 133 nM.

Which results are given for YMDDVVLGV?
IC50 (HLA-A*02:02): 90.6 nM; IC50 (HLA-A*68:02): 422 nM; IC50 (HLA-A*02:06): 90.6 nM; IC50 (HLA-A*02:03): 11.5 nM

For YPALMPLYACI, which IC50 (HLA-B*51:01) is on record?
Its IC50 is 119 nM.

And the IC50 (HLA-B*54:01)?
The IC50 was 111 nM.

Source: the Immune Epitope Database (IEDB)
